Laboratory results published in US12618835B2, “Multiplex microelectrode array for detection of proteases as biomarkers” (Kansas State University Research Foundation, priority 2021, dated 2026).
Where “and” joins values, the source holds several entries; their conditions need not be identical. Equal entries are not always repeated. Where no end group is shown, it is not given here. [ ]: non-standard residue; d: D form. The star is where a group is joined. aminomethylferrocene = [Fe+2].c1cc[c-](CN*)c1.c1cc[cH-]c1; Ava = NCCCCC(=O)O

Biological target: cathepsin B (Homo sapiens, UniProt P07858)
Experiment: Electrochemical (AC voltammetry) proteolysis of peptide-Fc substrates on 3x3 Au MEA, Example 1
Assay type: biochemical
Parameters: purchased R&D Systems Inc. (Minneapolis, MN)
Details: for 1/τ AVG: average of 3 channels per peptide, 50 mM MES buffer pH=5.0, FIG. 8; for average values of 1/τ: three peptides on one MEA, 3 channels each, 50 mM MES pH=5.0
Excerpt: N-Fluorenylmethyloxycarbonyl (Fmoc) protected amino acids, amino acid attached 2-chlorotrityl resins, 1-[bis(dimethylamino)methylene]-1H-1,2,3-triazolo[4,5-b]pyridinium 3-oxide hexafluorophosphate (HATU), and 2-(1H-benzotriazol-1-yl)-1,1,3,3-tetramethyluronium hexafluorophosphate (HBTU) were purchased from Chem-Impex International, Inc. (Wood Dale, IL) and AAPPTEC LLC (Louisville, KY). Potassium hexacyanoferrate (II) trihydrate, potassium nitrate, 1-ethyl-3-(3-dimethylaminopropyl)carbodiimide (EDC), N-hydroxysulfosuccinimide (Sulfo-NHS), 6-mercapto-1-hexanol, and 6-mercapto-1-hexanoic acid were obtained from Sigma-Aldrich (St. Louis, MO). Dithiothreitol (DTT), sodium phosphate dibasic heptahydrate (Na2HPO4·7H2O), sodium phosphate monobasic (NaH2PO4) and 2-(4-morpholino)ethanesulfonic acid ([…]) were purchased from Fisher Scientific (Hampton, NH). […] Cathepsin B solutions were activated by incubation in 25 mM MES buffer (pH=5.0) containing 5 mM DTT for 15 min before proteolysis experiments.
Electrochemical measurements were performed using an Ivium n-Stat Potentiostat (Eindhoven, The Netherlands) outfitted with five dual channel modules, allowing up to ten independent working electrodes to function simultaneously with a common reference and counter electrodes. […] In this study, the nine leads from the potentiostat (FIG. 9b) were interfaced with a breakout box, which was then connected to a custom-built electrochemical cell via a ribbon cable (FIG. 9c). The sensor chip consists of nine lithographically patterned Au working microelectrodes placed in the custom-built electrochemical cell (FIG. 9d) and electrical contact was made via pogo pins. All measurements were performed using a common mercury/mercurous sulfate reference electrode (Hg/Hg2SO4, MSE) filled with a saturated solution of K2SO4 (CH Instruments, Austin, TX) and a common Pt wire counter electrode.
Prior to use, the MEAs were sonicated in acetone for 1 minute, subsequently rinsed with methanol and isopropanol for 15 s and then dried by blowing with nitrogen. Next, the electrodes were placed in the experimental cell and electrochemically cleaned by cycling from −0.60 to 0.70 V vs. MSE in 0.10 M phosphate buffer (pH=7.4). For the experiments using an MEA modified with the same peptide-Fc substrate (i.e., H-15) on all nine microelectrodes, the whole chip was incubated in a mixture of 1.0 mM 6-mercapto-1-hexanol and 0.2 mM 6-mercapto-1-hexanoic acid in deionized water for 40 min to form a self-assembled monolayer (SAM). This step passivated the entire Au microelectrode surface while leaving adequate spacing between the exposed carboxyl functionalities. Next, the electrodes were incubated in a solution containing 2.0 mM peptide-Fc substrate (i.e., H-3, H-15, or H-16), 0.20 g/l EDC and 0.20 g/l sulfo-NHS for 2 hours at room temperature so that the peptides were covalently attached to the carboxyl groups of the SAM through the formation of amide bonds. The low ratio of carboxyl to hydroxyl groups at the SAM surface ensured a large separation between the peptide-Fc molecules which was important to reduce the steric hindrance during subsequent proteolysis measurements. Finally, the electrodes were rinsed with deionized water to remove any non-bound peptide-Fc substrate that may be physiosorbed on the surface. For multiplex experiments, the chip was masked with a ˜1.2 mm thick polydimethylsiloxane (PDMS) film punched with a 3×3 array of ˜0.7 mm diameter holes that were aligned on top of each Au microelectrodes. About 100 μl mixed thiol solution (6-mercapto-1-hexanol and 6-mercapto-1-hexanoic acid) as described above was added on the chip surface to fill all nine PDMS holes and was incubated for 40 min. Then, the microelectrodes and wells were rinsed and dried on a hot plate at 35° C. Finally, 0.50 μl of the EDC/sulfo-NHS/peptide-Fc (H-3, H-15, or H-16) reaction mixture was added to each well using a nanoinjector mounted on a x-y-z-micromanipulator and incubated for 2 h. […]

Substance | 1/τ AVG (6.0 nM cathepsin B) | average values of 1/τ (6.0 nM cathepsin B) | average value of 1/τ (CH 1-6, 6.0 nM cathepsin B, MES buffer pH=5.0) | fitted value of 1/τ (CH 4, 6.0 nM cathepsin B, 25 mM MES buffer pH=5.0) | 1/τ Avg (average of channels 1-6, H-15 modified Au MEA, 6.0 nM cathepsin B, MES buffer pH=5.0) | 1/τ (individual channels 1-6 of H-15 modified Au MEA, 6.0 nM cathepsin B, MES buffer pH=5.0, FIG. 7)
H2N-(CH2)4-CO-Pro-Leu-Ala-Gly-Val-Ala-NH-CH2-Fc ([Ava]PLAGVA-aminomethylferrocene) [Peptide H-16] | 8.90 s⁻¹ | (8.9±1.1)×10^−4 s^−1 | – | – | – | –
H2N-(CH2)4-CO-Pro-Leu-Ala-Phe-Val-Ala-NH-CH2-Fc ([Ava]PLAFVA-aminomethylferrocene) [Peptide H-15] | 6.79 s⁻¹ | (6.8±1.8)×10^−4 s^−1 | (6.63±0.87)×10^−4 s^−1 | 0.000684 s⁻¹ | 0.000663 s⁻¹ | 0.000684 s⁻¹ and 0.000779 s⁻¹ and 0.000645 s⁻¹ and 0.00055 s⁻¹ and 0.000734 s⁻¹ and 0.000588 s⁻¹
H2N-(CH2)4-CO-Pro-Leu-Arg-Phe-Gly-Ala-NH-CH2-Fc ([Ava]PLRFGA-aminomethylferrocene) [Peptide H-3] | 7.36 s⁻¹ | (7.4±0.9)×10^−4 s^−1 | – | – | – | –
